Results: US20180186893A1 (NATIONAL RESEARCH COUNCIL OF CANADA, published 2018)

Key:
[1] = target: hCA-IX fragment 8 (aa 38-414, +PG+CA+) displayed on yeast as Aga2-HA-CA9-MYC (pPNL6), clone 8B (human, UniProt P32781 19-87; Q16790 38-414); test: YSD whole yeast cell ELISA, native, normalised to anti-MYC; native fragment on yeast (Table 7)
[2] = target: T1, rmCA-IX (murine, UniProt Q8VHB5 32-389, limits assumed); test: SPR, antibody captured by anti-human Fc
T1 construct: Bought; construct not described; also called recombinant murine (rm)CA-IX

[3] = target: T2, rhCA-XIV (human, UniProt Q9ULX7 16-290, limits assumed); test: SPR, antibody captured by anti-human Fc
T2 construct: Bought; construct not described; also called recombinant human CA-XIV

[4] = target: T3, rhCA-IV (human, UniProt P22748 19-283, limits assumed); test: SPR, antibody captured by anti-human Fc
T3 construct: Bought; construct not described; also called recombinant human CA-IV

[5] = target: T4, rhCA-XII (human, UniProt O43570 25-291, limits assumed); test: SPR, antibody captured by anti-human Fc
T4 construct: Bought; construct not described; also called recombinant human CA-XII (Sino Biologics)

[6] = target: T5, dimeric CA-IX extracellular domain (ECD) from mouse (mouse, UniProt Q8VHB5 32-390); test: SPR, antibody captured by anti-human Fc, specific binding yes/no
T5 construct: extracellular domain

[7] = target: T6, hCA-IX PG domain fragment #11 (aa 37-71) displayed on yeast as Aga2-HA-CA9-MYC (pPNL6), clone 11 A + B (human, UniProt P32781 19-87 (Saccharomyces cerevisiae entry)); test: YSD whole yeast cell ELISA, native PG tiling fragment;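 further: monoclonal antibody binding to intact yeast cells displaying the fragment, read by ELISA, with the anti-CA-IX signal normalized against the anti-MYC display signal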
T6 construct: not shown: HA tag; MYC tag

[8] = target: T7, hCA-IX PG domain fragment #5 (aa 77-91) displayed on yeast as Aga2-HA-CA9-MYC (pPNL6), clone 5 A + B (human, UniProt P32781 19-87 (Saccharomyces cerevisiae entry)); test: as above
T7 construct: not shown: HA tag; MYC tag

[9] = target: T8, hCA-IX PG domain fragment #6 (aa 87-101) displayed on yeast as Aga2-HA-CA9-MYC (pPNL6), clone 6 A + B (human, UniProt P32781 19-87 (Saccharomyces cerevisiae entry)); test: as above
T8 construct: not shown: HA tag; MYC tag

[10] = target: T9, hCA-IX PG domain fragment #8 (aa 107-121) displayed on yeast as Aga2-HA-CA9-MYC (pPNL6), clone 8 A + B (human, UniProt P32781 19-87 (Saccharomyces cerevisiae entry)); test: as above
T9 construct: not shown: HA tag; MYC tag

[11] = target: T10, hCA-IX PG domain fragment #3 (aa 57-71) displayed on yeast as Aga2-HA-CA9-MYC (pPNL6), clone 3 A + B (human, UniProt P32781 19-87 (Saccharomyces cerevisiae entry)); test: as above
T10 construct: not shown: HA tag; MYC tag

[12] = target: T11, hCA-IX PG domain fragment #9 (aa 117-131) displayed on yeast as Aga2-HA-CA9-MYC (pPNL6), clone 9 A + B (human, UniProt P32781 19-87 (Saccharomyces cerevisiae entry)); test: as above
T11 construct: not shown: HA tag; MYC tag

[13] = target: T12, hCA-IX PG domain fragment #2 (aa 47-61) displayed on yeast as Aga2-HA-CA9-MYC (pPNL6), clone 2 A + B (human, UniProt P32781 19-87 (Saccharomyces cerevisiae entry)); test: as above
T12 construct: not shown: HA tag; MYC tag

[14] = target: T13, hCA-IX PG domain fragment #12 (aa 67-111) displayed on yeast as Aga2-HA-CA9-MYC (pPNL6), clone 12 A + B (human, UniProt P32781 19-87 (Saccharomyces cerevisiae entry)); test: as above
T13 construct: not shown: HA tag; MYC tag

[15] = target: T14, hCA-IX PG domain fragment #4 (aa 67-81) displayed on yeast as Aga2-HA-CA9-MYC (pPNL6), clone 4 A + B (human, UniProt P32781 19-87 (Saccharomyces cerevisiae entry)); test: as above
T14 construct: not shown: HA tag; MYC tag

[16] = target: T15, hCA-IX PG domain fragment #7 (aa 97-111) displayed on yeast as Aga2-HA-CA9-MYC (pPNL6), clone 7 A + B (human, UniProt P32781 19-87 (Saccharomyces cerevisiae entry)); test: as above
T15 construct: not shown: HA tag; MYC tag

[17] = target: T16, hCA-IX PG domain fragment #14 (aa 37-140) displayed on yeast as Aga2-HA-CA9-MYC (pPNL6), clone 14 A + B (human, UniProt P32781 19-87 (Saccharomyces cerevisiae entry)); test: as above
T16 construct: not shown: HA tag; MYC tag

[18] = target: T17, hCA-IX PG domain fragment #13 (aa 107-140) displayed on yeast as Aga2-HA-CA9-MYC (pPNL6), clone 13 A + B (human, UniProt P32781 19-87 (Saccharomyces cerevisiae entry)); test: as above
T17 construct: not shown: HA tag; MYC tag

[19] = target: T18, hCA-IX PG domain fragment #1 (aa 37-51) displayed on yeast as Aga2-HA-CA9-MYC (pPNL6), clone 1 A + B (human, UniProt P32781 19-87 (Saccharomyces cerevisiae entry)); test: as above
T18 construct: not shown: HA tag; MYC tag

[20] = target: T19, hCA-IX fragment 2 (aa 38-136, +PG+) displayed on yeast as Aga2-HA-CA9-MYC (pPNL6), clone 2B (human, UniProt P32781 19-87; Q16790 38-136); test: YSD whole yeast cell ELISA, native
T19 construct: not shown: HA tag; MYC tag
T19 sequence (P32781 19-87 limits assumed, chain 1 of 2, other chains not shown): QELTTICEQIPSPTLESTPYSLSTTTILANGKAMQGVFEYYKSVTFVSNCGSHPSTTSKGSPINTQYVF

T4 sequence (O43570 25-291 limits assumed): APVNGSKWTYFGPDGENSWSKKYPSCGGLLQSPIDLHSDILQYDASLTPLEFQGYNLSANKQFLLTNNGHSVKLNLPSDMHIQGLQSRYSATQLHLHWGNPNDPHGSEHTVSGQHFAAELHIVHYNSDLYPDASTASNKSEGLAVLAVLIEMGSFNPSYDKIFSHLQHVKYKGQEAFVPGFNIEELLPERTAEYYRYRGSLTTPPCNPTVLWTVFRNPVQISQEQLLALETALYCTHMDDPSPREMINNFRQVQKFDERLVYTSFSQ
T17 sequence (P32781 19-87 limits assumed, chain 1 of 2): as the sequence (P32781 19-87 limits assumed, chain 1 of 2, other chains not shown) above
T17 sequence (chain (part 2 of 2), as listed by the source limits assumed, chain 2 of 2): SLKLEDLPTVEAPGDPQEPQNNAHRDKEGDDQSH
T12 sequence (P32781 19-87 limits assumed): as the sequence (P32781 19-87 limits assumed, chain 1 of 2, other chains not shown) above
T13 sequence (P32781 19-87 limits assumed, chain 1 of 2): as the sequence (P32781 19-87 limits assumed, chain 1 of 2, other chains not shown) above
T13 sequence (chain (part 2 of 2), as listed by the source limits assumed, chain 2 of 2): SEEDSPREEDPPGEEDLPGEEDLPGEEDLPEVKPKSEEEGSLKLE
T15 sequence (P32781 19-87 limits assumed): as the sequence (P32781 19-87 limits assumed, chain 1 of 2, other chains not shown) above
T6 sequence (P32781 19-87 limits assumed, chain 1 of 2): as the sequence (P32781 19-87 limits assumed, chain 1 of 2, other chains not shown) above
T6 sequence (chain (part 2 of 2), as listed by the source limits assumed, chain 2 of 2): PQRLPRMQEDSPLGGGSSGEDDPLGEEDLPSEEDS
T18 sequence (P32781 19-87 limits assumed): as the sequence (P32781 19-87 limits assumed, chain 1 of 2, other chains not shown) above
T7 sequence (P32781 19-87 limits assumed): as the sequence (P32781 19-87 limits assumed, chain 1 of 2, other chains not shown) above
T16 sequence (P32781 19-87 limits assumed, chain 1 of 2): as the sequence (P32781 19-87 limits assumed, chain 1 of 2, other chains not shown) above
T16 sequence (chain (part 2 of 2), as listed by the source limits assumed, chain 2 of 2): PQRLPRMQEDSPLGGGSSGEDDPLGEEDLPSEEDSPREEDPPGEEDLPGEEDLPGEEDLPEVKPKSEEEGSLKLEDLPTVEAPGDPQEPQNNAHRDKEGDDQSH
T10 sequence (P32781 19-87 limits assumed): as the sequence (P32781 19-87 limits assumed, chain 1 of 2, other chains not shown) above
T14 sequence (P32781 19-87 limits assumed): as the sequence (P32781 19-87 limits assumed, chain 1 of 2, other chains not shown) above
T11 sequence (P32781 19-87 limits assumed): as the sequence (P32781 19-87 limits assumed, chain 1 of 2, other chains not shown) above
hCA-IX fragment 8 (aa 38-414, +PG+CA+) displayed on yeast as Aga2-HA-CA9-MYC (pPNL6), clone 8B, sequence (P32781 19-87 limits assumed, chain 1 of 2, other chains not shown): as above
T9 sequence (P32781 19-87 limits assumed): as the sequence (P32781 19-87 limits assumed, chain 1 of 2, other chains not shown) above
T8 sequence (P32781 19-87 limits assumed): as the sequence (P32781 19-87 limits assumed, chain 1 of 2, other chains not shown) above
T1 sequence (Q8VHB5 32-389 limits assumed): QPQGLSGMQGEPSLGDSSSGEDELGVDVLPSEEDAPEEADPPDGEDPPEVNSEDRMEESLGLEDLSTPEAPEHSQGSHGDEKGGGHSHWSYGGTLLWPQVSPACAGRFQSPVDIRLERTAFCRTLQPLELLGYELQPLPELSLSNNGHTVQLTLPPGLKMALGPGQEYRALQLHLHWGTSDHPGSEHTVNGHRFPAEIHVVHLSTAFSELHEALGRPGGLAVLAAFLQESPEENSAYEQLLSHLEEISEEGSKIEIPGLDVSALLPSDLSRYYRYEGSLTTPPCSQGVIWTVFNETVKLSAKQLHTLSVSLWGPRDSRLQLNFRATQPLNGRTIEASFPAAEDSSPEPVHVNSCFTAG
T2 sequence (Q9ULX7 16-290 limits assumed): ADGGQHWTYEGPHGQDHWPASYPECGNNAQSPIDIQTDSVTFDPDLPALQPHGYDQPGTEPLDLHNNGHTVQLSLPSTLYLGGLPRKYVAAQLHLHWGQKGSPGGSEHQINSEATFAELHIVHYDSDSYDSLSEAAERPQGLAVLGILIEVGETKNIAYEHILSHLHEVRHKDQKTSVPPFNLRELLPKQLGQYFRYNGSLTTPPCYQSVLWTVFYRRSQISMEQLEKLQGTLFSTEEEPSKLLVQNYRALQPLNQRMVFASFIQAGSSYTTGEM
T3 sequence (P22748 19-283 limits assumed): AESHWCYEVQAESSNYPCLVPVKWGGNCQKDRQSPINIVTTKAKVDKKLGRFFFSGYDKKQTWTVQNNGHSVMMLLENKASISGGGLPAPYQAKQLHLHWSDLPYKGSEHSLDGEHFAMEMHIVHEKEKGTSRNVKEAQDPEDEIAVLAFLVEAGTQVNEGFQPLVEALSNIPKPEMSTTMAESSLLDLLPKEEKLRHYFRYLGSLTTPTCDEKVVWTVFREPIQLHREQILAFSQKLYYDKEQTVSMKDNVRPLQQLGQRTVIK
T5 sequence (Q8VHB5 32-390): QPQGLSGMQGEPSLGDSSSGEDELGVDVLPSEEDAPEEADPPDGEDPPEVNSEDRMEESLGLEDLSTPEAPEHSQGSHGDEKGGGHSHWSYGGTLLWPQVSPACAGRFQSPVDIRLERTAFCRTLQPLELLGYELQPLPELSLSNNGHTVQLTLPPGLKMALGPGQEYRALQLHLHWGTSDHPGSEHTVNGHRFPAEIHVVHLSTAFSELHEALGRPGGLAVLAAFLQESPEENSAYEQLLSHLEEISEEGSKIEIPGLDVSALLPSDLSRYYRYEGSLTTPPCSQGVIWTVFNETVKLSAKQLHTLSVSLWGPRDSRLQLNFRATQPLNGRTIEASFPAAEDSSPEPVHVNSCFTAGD

B1: c2C7 (chimeric 2C7, human IgG1 / human kappa 1) (antibody, V domains shown)
VH: QVQLQQSGPELVKPGASVRISCKASGFTFTSCYIHWMKQRPGQGLEWIGWIYPGNGNTKYNEIFKGRATLTTDKSSSTAYMQLSSLTSEDSAVYFCARGDTTANTMDYWGQGTSVTVSS
VL: DIQMTQSPASLSASVGETVTITCRASGNIHNYLAWYQQKQGKSPQLLVYNTITLADGVPSRFSGSGSGTQYSLKINSLQPEDFGSYYCQHFWNIPFTFGAGTKLELKR
notes: Expressed in CHO cells
- binding result [1]: binds
- binding result [2]: no binding (tested: 100 nM)
- binding result [3]: no binding (tested: 100 nM)
- binding result [4]: no binding (tested: 100 nM)
- binding result [5]: no binding (tested: 100 nM)
- binding result [6]: no binding
- binding result [7]: no binding
- binding result [8]: no binding
- binding result [9]: no binding
- binding result [10]: no binding
- binding result [11]: no binding
- binding result [12]: no binding
- binding result [13]: no binding
- binding result [14]: no binding
- binding result [15]: no binding
- binding result [16]: no binding
- binding result [17]: no binding
- binding result [18]: no binding
- binding result [19]: no binding
- binding result [20]: no binding
